Measurements: patent publication US20180185504A1 (Regeneron, published 2018)
Substitutions are numbered along the chain they refer to. Names may count otherwise.

T1: mouse PRLR with an HA tag on HEK293 cells (mouse, UniProt Q08501 20-608)
T1 construct: whole, on cells; also called HEK293/mPRLR; rodent PRLR; not shown: HA tag
T1 sequence (looked up): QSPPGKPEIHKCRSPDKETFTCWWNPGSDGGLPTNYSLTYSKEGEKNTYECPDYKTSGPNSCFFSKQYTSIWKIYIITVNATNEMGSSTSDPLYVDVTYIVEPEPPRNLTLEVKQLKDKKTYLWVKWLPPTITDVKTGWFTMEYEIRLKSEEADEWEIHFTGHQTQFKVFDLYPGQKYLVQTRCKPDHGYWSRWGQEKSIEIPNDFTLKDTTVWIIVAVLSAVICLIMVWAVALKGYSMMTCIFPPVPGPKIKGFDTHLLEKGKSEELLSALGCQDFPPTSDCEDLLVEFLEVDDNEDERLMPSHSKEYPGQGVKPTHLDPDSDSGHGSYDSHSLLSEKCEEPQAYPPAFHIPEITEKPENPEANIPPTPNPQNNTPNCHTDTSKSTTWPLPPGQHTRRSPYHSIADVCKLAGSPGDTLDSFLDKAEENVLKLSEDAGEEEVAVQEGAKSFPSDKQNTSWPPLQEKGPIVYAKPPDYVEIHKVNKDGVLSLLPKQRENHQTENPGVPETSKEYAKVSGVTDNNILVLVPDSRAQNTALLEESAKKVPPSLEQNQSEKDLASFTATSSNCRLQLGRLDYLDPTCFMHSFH

B1: H1H6783P (antibody, human IgG1, V domains shown)
VH: QVQLQQSGPGLVKPSQTLSLTCAISGDSVSSNTFAWNWIRQSPSRGLEWLGRTYYRSKWYIDYAESVKSRITITPDTSKNQFSLQLNSVTPEDTALYYCAGGYTYAPRGAFDIWGQGTMVTVSS
VL: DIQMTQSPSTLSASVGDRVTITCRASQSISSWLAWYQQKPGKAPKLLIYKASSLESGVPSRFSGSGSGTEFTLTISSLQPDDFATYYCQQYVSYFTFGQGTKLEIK
B2: H1H6774P (antibody, human IgG1, V domains shown)
VH: EVQLVESGGGLAQPGGSLRLSCVASGFTFSTYWMSWVRQAPGKGLDWVGNIKQDGSEQNYVDSVRGRFTISRDNAKNSLFLQMNSLRAEDTGVYYCATLLTKGDYWGQGTLVTVSS
VL: DIQMTQSPSSLSASVGDSVTITCRASQDISNYLDWFQQKPGKAPKSLIYAASILQGGVPSRFSGSGYGTDFTLTISSLQPEDFATYYCRQYKTYPFTFGPGTKVDIK
B3: H1H6790P (antibody, human IgG1, V domains shown)
VH: EVQLVESGGGLVQPGGSLRLSCAASGFTFSSYAMTWVRQAPGKGLEWVSAITGSVGNTYYADSVKGRFTISRDNSKNTLYLQMNSLGAEDTAEYYCAKGAGMTTNWYLDLWGRGTLVTVSS
VL: DIVMTQSPDSLAVSLGARATINCKSSQSVLYSSNNQNYLTWYQQKPGQPPKLLIKWASTRESGVPDRFSGSGSGTDFTLTISSLQAEDVAVYYCQQYASSPYTFGQGTKLEIK
B4: H1H6782P (antibody, human IgG1, V domains shown)
VH: EVQLVESGGGLVQPGRSLRLSCAASGFTFDDYAMHWVRQAPGKGLEWVSGIIWNSGHIGYGDSVKGRFTISRDNAKKSLYLQMNSLRAEDTALYYCARDSGRYQSYFDYWGQGTLVTVSS
VL: DIQMTQSPSTLSASVGDRVTITCRASHIISSWLAWYQQKPGKAPKVLIFKASSLESGVPSRFSGSGSGTEFTLTISSLQPDDFATYYCQQYNTYSRTFGQGTKVEIK
B5: H1H6960N (antibody, human IgG1, V domains shown)
VH: EVQLVESGGGLVKPGGSLRLSCAASGITFSSYSMNWVRQAPGKGLEWVSSISTRSSLIHYADSVKGRFTISRDNAKNSLYLQMNSLRDEDTAVYYCARWDAAAAFDYWGQGTLVIVSS
VL: DIQLTQSPSFLSASVGDRVTITCWASQGISSYLAWYQQKPGKAPKLLIYVASTLQSGVPSRFSGSGSGTEFTLTISSLQPEDFATYFCQQLNSYPLTFGGGTKVEIK
notes: Tested with human IgG1 Fc (H1H)
B6: H1H6975N (antibody, human IgG1, V domains shown)
VH: EVHLVESGGGLVQPGGSLRLSCAASGFTFSSYEMNWVRQTPGKGLEWISHISSRSVIIYYADSVKGRFTISRDNAKNSLFLQMNSLRAEDTAVYFCAGITIFGIPEYWGQGTLVTVSS
VL: EIVLTQSPATLSLSPGERATLSCRASQSVSSYFAWYQQKPGQAPRLLIYDASSRATGIPTRFSGSGSGTDFTLTISSLEPEDFAVYYCQQRSSWPITFGQGTRLEIK
notes: Tested with human IgG1 Fc (H1H); also called H1H6975P
B7: H1H6765P (antibody, human IgG1, V domains shown)
VH: EVQLVESGGGVVRPGGSLRLSCVGSGFSFDDHGMNWVRQGPGKGLEWVSGFNWNGGSTNYAESVKGRFTISRDNARNSLFLQMNSLRAEDTALYYCVRGRSGWFNDAFDVWGPGTMVTVSS
VL: EIVLTQSPGTLSLSPGERATLSCRASQTINSNYLAWYRQKPGQTPRLLIYGTSSRATGIPDRFSGSGSGTDFSLTISRLEPEDFAVFYCQQYAGLPTFGPGTKVDIK
B8: H1H6966N (antibody, human IgG1, V domains shown)
VH: QVQLVQSGAEVQKPGASVKVSCKVSGYTLTALSIHWVRQAPGKGLEWMGNFDPGDGETIHAQKFQGRVTMTGDTSTDTAYMELSSLRSEDTAVYYCVGVTFDYWGQGTLVTVSS
VL: EIVMTQSPATLSVSPGERATLSCRASQSVASNLAWYQQKPGQAPRLLLYGASTRATGIPARFSGSGSGTEFTLTISSLQSEDFALYYCQHYNNWPLTFGGGTKVEIK
notes: as for B5
B9: H1H6967N (antibody, human IgG1, V domains shown)
VH: EVQLVESGGDLVHPGRSLRLSCAASGFPFDEYAMHWVRQVPGKGLEWVSGISWSNNNIGYADSVKGRFTISRDNAKNSLYLQMNSLRPEDTAFYYCAKSGIFDSWGQGTLVTVSS
VL: B8 VL with A30S, S31R, N32D, L48I, Y49H, T69A, T74I, L85V, H90Q
notes: as for B5
B10: H1H6976N (antibody, human IgG1, V domains shown)
VH: EVQLLESGGGFVQPGGSLRLSCAASGFTFSSYAMSWVRQAPGKGLEWVSIISSNGRYTYYADSVKGRFTISRDNSKNTLYLQMNSLRAEDTAVYYCATVTGDWFDPWGQGTLVTVSS
VL: DIQLTQSPSFLSASVGDRVTITCWASQDIDISLAWYQQKPGKAPKLLIYAASTLQSGVPSKFSGSGSGTDFTLTISSLQPEDFSTYYCQQLNSYPITFGQGTRLDIK
notes: as for B5
B11: H1H6953N (antibody, human IgG1, V domains shown)
VH: EVQLLESGGGLVQPGGTLRLSCAASGFTFSAYAMSWVRQAPGKGLEWVSSINVRAGDTYYADSVKGRFTISRDNSKNTLFLLMNSLRAEDTAAYYCAKARYSSNWGFDFWGQGTLVTVSS
VL: DIVMTQSPDSLTVSLGARTTINCQSSQTILHSSNNHNYLAWYQQKPGLPPKLLIYWSSTRESGVPDRFSGSGSGTDFTLTISSLQAEDVAIYYCQQYSNTPYTFGQGTKLEIN
notes: as for B5
B12: H1H6781P (antibody, human IgG1, V domains shown)
VH: EVQLVESGGDLVQPGESLRLSCTASGFTFNSYEMNWVRQAPGKGLEWVSYISSSGGTKYYVDSVKGRFTISRDNAKKSLYLQMNSLRADDTALYYCARLNGVDVFDIWGQGTMVTVSS
VL: DIQMTQSPSSLSASVGDRVTITCRASQDIFNYLAWFQQKPGKVPELLISAASTLQSGVPSRFSGSGSGTYFTLTISSLQPEDIATYYCQRYNSAPLTFGGGTKVEIK
B13: H1H6785P (antibody, human IgG1, V domains shown)
VH: EVQLVESGGGLVQPGGSLRLSCAASGFTFSSYEMNWVRQAPGKGLEWISYISSRGGTIYYADSIKGRFTIYRDNARNSLYLQMNSLRAEDTAIYYCARLSGVDIFDIWGQGTMVTVSS
VL: B12 VL with D28G, F30S, F36Y, E45K, S49Y, A50F, S65G, Y70D, I83V
B14: H1H6959N2 (antibody, human IgG1, V domains shown)
VH: EVQLVESGGGLVQPGRSLRLSCAASGFTFDDYAMHWVRQAPGKGLEWVSGISWHSGIIGYADSVKGRFTISRDNAKNSLYLQMNSLRTEDAALYYCAKIGSYFYFDSWGQGTLVTVSS
VL: EIVLTQSPGTLSLSPGERATLSCRASQSVSSNYLAWYQQKPGQAPRLLIYGASSRATGIPDRFSGSGSGTDFTLTISRLEPEDFAVYYCQQFGSSGYTFGQGTNLEIK
notes: as for B5

Biological target: T1, mouse PRLR with an HA tag on HEK293 …
Experiment: FACS on HEK293/mPRLR cells

| binding result | Binder |
| --- | --- |
| no binding | B1 |
| no binding | B2 |
| no binding | B3 |
| no binding | B4 |
| no binding | B5 |
| no binding | B6 |
| no binding | B7 |
| no binding | B8 |
| no binding | B9 |
| no binding | B10 |
| no binding | B11 |
| no binding | B12 |
| no binding | B13 |
| no binding | B14 |
